This note sets out measurements from patent US20180311371A1 (Hoffmann-La Roche, published 2018).

Experiment [1] deals with T1, human TPBG (trophoblast glycoprotein), full length, cell surface expressed (human, UniProt Q13641 32-420).
T1 sequence: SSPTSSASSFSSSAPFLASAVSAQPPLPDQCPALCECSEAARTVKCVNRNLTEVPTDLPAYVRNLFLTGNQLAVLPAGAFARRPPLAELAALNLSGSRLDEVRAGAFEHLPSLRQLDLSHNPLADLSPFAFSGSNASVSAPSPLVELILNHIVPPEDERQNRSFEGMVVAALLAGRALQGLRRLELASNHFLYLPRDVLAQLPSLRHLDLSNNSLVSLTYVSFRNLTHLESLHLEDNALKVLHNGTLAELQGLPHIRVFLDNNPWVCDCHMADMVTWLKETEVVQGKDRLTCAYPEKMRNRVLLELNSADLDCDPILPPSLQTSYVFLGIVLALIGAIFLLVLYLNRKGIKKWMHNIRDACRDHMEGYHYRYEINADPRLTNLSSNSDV
Description: cell-based or functional assay.

The target in experiment [2] is T1, human TPBG (trophoblast glycoprotein), …. Description: cell-based or functional assay. This is another data set of the same source.
The target in experiment [3] is T2, minipig TPBG, full length, cell surface expressed on CHO-K1 cells (minipig).
T2 chain: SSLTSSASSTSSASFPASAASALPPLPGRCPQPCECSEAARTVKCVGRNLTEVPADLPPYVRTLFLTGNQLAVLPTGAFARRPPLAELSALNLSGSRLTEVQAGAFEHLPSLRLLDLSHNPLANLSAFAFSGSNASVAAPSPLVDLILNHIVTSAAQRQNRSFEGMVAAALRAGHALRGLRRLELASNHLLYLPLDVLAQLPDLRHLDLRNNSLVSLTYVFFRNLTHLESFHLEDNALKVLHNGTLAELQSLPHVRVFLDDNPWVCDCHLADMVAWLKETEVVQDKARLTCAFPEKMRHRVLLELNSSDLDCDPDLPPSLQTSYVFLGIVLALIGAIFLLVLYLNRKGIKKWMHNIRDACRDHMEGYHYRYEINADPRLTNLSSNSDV
In words: cell-based or functional assay.

Experiment [4] deals with T1, human TPBG (trophoblast glycoprotein), …. Description: cell-based or functional assay. This is another data set of the same source.
The target is the same in experiment [5]. In words: cell-based or functional assay. This is another data set of the same source.
The target is the same in experiment [6]. In words: cell ELISA on MCF7 cells; titrated from 5 µg/ml.
Experiment [7] concerns the target T3, huTPBG (recombinant human TPBG immobilised on the Biacore chip) (human, UniProt Q13641 32-355, limits assumed).
T3 construct: also called human TPBG antigen
T3 sequence: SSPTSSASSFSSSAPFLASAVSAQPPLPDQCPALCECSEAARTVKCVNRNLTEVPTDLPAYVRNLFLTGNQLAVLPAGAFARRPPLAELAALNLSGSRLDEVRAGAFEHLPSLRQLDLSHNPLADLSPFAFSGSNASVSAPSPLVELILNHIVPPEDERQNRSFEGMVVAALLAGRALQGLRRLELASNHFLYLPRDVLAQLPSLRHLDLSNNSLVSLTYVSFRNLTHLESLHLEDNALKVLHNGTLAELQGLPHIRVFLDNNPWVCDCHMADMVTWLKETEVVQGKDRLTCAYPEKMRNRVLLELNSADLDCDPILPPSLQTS
In words: SPR Biacore T200; huTPBG amine-coupled, Fab injected.

The target of experiment [8] is T1, human TPBG (trophoblast glycoprotein), …. Description: flow cytometry on SW620 clone 4 cells; ratio of MFI; replicate 1.
The target is the same in experiment [9]. Description: flow cytometry on SW620 clone 4 cells; ratio of MFI; replicate 2.
Experiment [10] addresses T4, recombinant extracellular domain of minipig TPBG (Biacore analyte) (minipig).
T4 chain: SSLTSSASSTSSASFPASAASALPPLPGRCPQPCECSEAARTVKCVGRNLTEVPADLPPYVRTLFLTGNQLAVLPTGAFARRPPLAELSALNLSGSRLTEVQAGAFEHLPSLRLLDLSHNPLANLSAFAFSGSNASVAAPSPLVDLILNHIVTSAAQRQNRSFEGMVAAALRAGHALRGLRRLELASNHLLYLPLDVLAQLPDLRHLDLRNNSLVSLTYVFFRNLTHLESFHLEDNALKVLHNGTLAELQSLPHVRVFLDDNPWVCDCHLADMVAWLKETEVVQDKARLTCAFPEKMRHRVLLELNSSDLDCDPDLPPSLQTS
In words: SPR Biacore T200; Fab captured by anti-huFab, minipig TPBG injected.

For experiment [11], the target named is T5, cynomolgus TPBG extracellular domain, His6Avi, biotinylated (cynomolgus, biotinylated).
T5 construct: also called cyTPBG; cyno TPBG-AviHis
T5 chain: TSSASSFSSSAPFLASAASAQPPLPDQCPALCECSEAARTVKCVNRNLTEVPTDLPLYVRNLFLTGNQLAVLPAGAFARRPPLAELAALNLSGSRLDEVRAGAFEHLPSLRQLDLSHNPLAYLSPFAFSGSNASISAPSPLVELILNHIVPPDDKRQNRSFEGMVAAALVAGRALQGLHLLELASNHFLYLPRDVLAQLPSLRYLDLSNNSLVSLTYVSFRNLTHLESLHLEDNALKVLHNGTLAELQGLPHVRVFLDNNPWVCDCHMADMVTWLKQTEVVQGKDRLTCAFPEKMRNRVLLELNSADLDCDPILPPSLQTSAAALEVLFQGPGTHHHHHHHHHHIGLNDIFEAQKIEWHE
Description: ELISA; biotinylated TPBG-AviHis on streptavidin plate; Fab titrated from 2 µg/ml.

B1: anti-TPBG antibody 091, Fab fragment (Fab, V domains shown)
VH: EVHLLESGGGLVHPGGSLRLSCAASGFTFRSDAMHWVRQAPGKGLEWVSGVSGSGGSPYYADSVKGRFTISRDDSKTTLYLQMNSLRAEDTAVYYCATGGSIAGSYYYYPMDVWGQGTTVTVSS
VL: DIQMTQSPSSLSASVGDRVTITCQASQDISNYLNWYQQKPGKAPKLLIYAASTLQIGVPSRFSGSGSGTDFTFTISSLQPEDFATYYCQQANSFPLTFGGGTKVEIK
notes: also called Fab2
Consider B1, for which, in experiment [1], the “internalization after 0.5 h, MCF7 cells” value came out at 16%; the “internalization after 1.0 h, MCF7 cells” value is 33%; the “internalization after 2.0 h, MCF7 cells” value stood at 42%. In addition, in [2], the “EC50 cytotoxicity, Fab + anti-kappa-Fab-PE, CHO-K1/human TPBG, replicate 1” value was found to be 0.23 nM and the “EC50 cytotoxicity, Fab + anti-kappa-Fab-PE, CHO-K1/human TPBG, replicate 2” value came out at 0.24 nM. In [3], the “EC50 cytotoxicity, Fab + anti-kappa-Fab-PE, CHO-K1/minipig TPBG, replicate 1” value was 1.05 nM and the “EC50 cytotoxicity, Fab + anti-kappa-Fab-PE, CHO-K1/minipig TPBG, replicate 2” value was found to be 1.2 nM. Also, in [4], the “EC50 cytotoxicity, Fab-PE sandwich construct, MCF7” value was 0.414 nM; the “X-fold higher potency compared to TPBG(H8)PE, MCF7, first experiment” value is 3 fold; the “X-fold higher potency compared to TPBG(H8)PE, MCF7, second experiment” value was 2.7 fold. In [5], the “EC50 cytotoxicity, Fab-PE sandwich construct, H1975, replicate 1” value came to 0.166 nM; the “EC50 cytotoxicity, Fab-PE sandwich construct, H1975, replicate 2” value was 0.129 nM; the “EC50 cytotoxicity, Fab-PE sandwich construct, H1975, replicate 3” value came to 0.182 nM. For the same molecule, the EC50 in [6] amounted to 0.014 mg/L. Also, in experiment [7], the Kd is 0.0558 nM, the koff was determined as 2.72e-05 s⁻¹ and the kon worked out at 487000 M⁻¹ s⁻¹. Further, the “Fold change pH 7.2 vs pH 5.5” value in experiment [8] is 0.9 fold. Also, the “Fold change pH 7.2 vs pH 5.5” value in [9] was 1 fold. In experiment [10], the Kd came out at 1.74 nM, the koff came to 0.000205 s⁻¹ and the kon was found to be 118000 M⁻¹ s⁻¹. The same molecule showed an EC50 in [11] of 1.23 mg/L.
